# Source: patent US20250073311A1, “DOSAGE REGIME” (ZEALAND PHARMA A/S, priority 2021, published 2025)
# Numbered stars: 1 amine (or outer) side, 2 acyl side, 3 side chain; on linkers, the order of the positions; unused ones are H or OH. Square brackets hold non-standard residues; d marks the D form. Side chains are listed from the residue outwards. * marks the point of attachment. C20 diacid = O=C(O)CCCCCCCCCCCCCCCCCCC(=O)*; C18 diacid = O=C(O)CCCCCCCCCCCCCCCCC(=O)*; γGlu = O=C(O)[C@H](CCC(=O)[*:2])N[*:1]; AEEA = NCCOCCOCC(=O)O; Aib = CC(C)(N)C(=O)O
# T1: human GLP-2 receptor (hGLP2-R) (human, UniProt O95838)
# T1 sequence: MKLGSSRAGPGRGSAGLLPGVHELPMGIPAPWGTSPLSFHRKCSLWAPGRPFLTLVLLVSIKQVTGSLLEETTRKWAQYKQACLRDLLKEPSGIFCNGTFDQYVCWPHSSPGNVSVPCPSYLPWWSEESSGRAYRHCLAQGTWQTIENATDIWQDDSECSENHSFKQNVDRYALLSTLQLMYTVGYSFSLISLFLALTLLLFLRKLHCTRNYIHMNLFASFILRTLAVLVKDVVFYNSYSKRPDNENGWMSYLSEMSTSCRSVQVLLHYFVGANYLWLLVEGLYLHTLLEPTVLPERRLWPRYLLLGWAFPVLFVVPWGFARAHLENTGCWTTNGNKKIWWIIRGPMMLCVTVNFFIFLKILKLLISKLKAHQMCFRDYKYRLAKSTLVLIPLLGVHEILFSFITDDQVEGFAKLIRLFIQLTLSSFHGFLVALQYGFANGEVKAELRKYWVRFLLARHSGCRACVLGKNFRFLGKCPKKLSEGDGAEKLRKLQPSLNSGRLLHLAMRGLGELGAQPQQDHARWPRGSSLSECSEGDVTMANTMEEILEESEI
# Key:
# [1] = target: T1, human GLP-2 receptor (hGLP2-R); assay: cell-based or functional assay
# [2] = target: human glucagon-like peptide 1 receptor (GLP-1R) (human, UniProt P43220); assay: cell-based or functional assay
Binder,"EC50 GLP-2 (nM), cAMP AlphaScreen [1] [nM]","EC50 GLP-1 (nM), cAMP AlphaScreen [2] [nM]"
H-H[Aib]EGTFTSELATILDEQAAK([AEEA-AEEA-γGlu-C20 diacid])DFIAWLIEHKITD-OH (SMILES CC[C@H](C)[C@H](NC(=O)[C@H](Cc1ccccc1)NC(=O)[C@H](CC(=O)O)NC(=O)[C@H](CCCCNC(=O)COCCOCCNC(=O)COCCOCCNC(=O)CC[C@H](NC(=O)CCCCCCCCCCCCCCCCCCC(=O)O)C(=O)O)NC(=O)[C@H](C)NC(=O)[C@H](C)NC(=O)[C@H](CCC(N)=O)NC(=O)[C@H](CCC(=O)O)NC(=O)[C@H](CC(=O)O)NC(=O)[C@H](CC(C)C)NC(=O)[C@@H](NC(=O)[C@@H](NC(=O)[C@H](C)NC(=O)[C@H](CC(C)C)NC(=O)[C@H](CCC(=O)O)NC(=O)[C@H](CO)NC(=O)[C@@H](NC(=O)[C@H](Cc1ccccc1)NC(=O)[C@@H](NC(=O)CNC(=O)[C@H](CCC(=O)O)NC(=O)C(C)(C)NC(=O)[C@@H](N)Cc1c[nH]cn1)[C@@H](C)O)[C@@H](C)O)[C@@H](C)O)[C@@H](C)CC)C(=O)N[C@@H](C)C(=O)N[C@@H](Cc1c[nH]c2ccccc12)C(=O)N[C@@H](CC(C)C)C(=O)N[C@H](C(=O)N[C@@H](CCC(=O)O)C(=O)N[C@@H](Cc1c[nH]cn1)C(=O)N[C@@H](CCCCN)C(=O)N[C@H](C(=O)N[C@H](C(=O)N[C@@H](CC(=O)O)C(=O)O)[C@@H](C)O)[C@@H](C)CC)[C@@H](C)CC) [Compound 46],0.38,0.26
H-H[Aib]EGSFTSEK([AEEA-AEEA-γGlu-C20 diacid])ATILDEQAARDFIAWLIEHKITD-OH [Compound 42],0.33,0.067
H-H[Aib]EGTFTSELATILDK([γGlu-C20 diacid])QAARDFIAWLIQHKITD-OH (SMILES CC[C@H](C)[C@H](NC(=O)[C@H](Cc1ccccc1)NC(=O)[C@H](CC(=O)O)NC(=O)[C@H](CCCNC(=N)N)NC(=O)[C@H](C)NC(=O)[C@H](C)NC(=O)[C@H](CCC(N)=O)NC(=O)[C@H](CCCCNC(=O)CC[C@H](NC(=O)CCCCCCCCCCCCCCCCCCC(=O)O)C(=O)O)NC(=O)[C@H](CC(=O)O)NC(=O)[C@H](CC(C)C)NC(=O)[C@@H](NC(=O)[C@@H](NC(=O)[C@H](C)NC(=O)[C@H](CC(C)C)NC(=O)[C@H](CCC(=O)O)NC(=O)[C@H](CO)NC(=O)[C@@H](NC(=O)[C@H](Cc1ccccc1)NC(=O)[C@@H](NC(=O)CNC(=O)[C@H](CCC(=O)O)NC(=O)C(C)(C)NC(=O)[C@@H](N)Cc1c[nH]cn1)[C@@H](C)O)[C@@H](C)O)[C@@H](C)O)[C@@H](C)CC)C(=O)N[C@@H](C)C(=O)N[C@@H](Cc1c[nH]c2ccccc12)C(=O)N[C@@H](CC(C)C)C(=O)N[C@H](C(=O)N[C@@H](CCC(N)=O)C(=O)N[C@@H](Cc1c[nH]cn1)C(=O)N[C@@H](CCCCN)C(=O)N[C@H](C(=O)N[C@H](C(=O)N[C@@H](CC(=O)O)C(=O)O)[C@@H](C)O)[C@@H](C)CC)[C@@H](C)CC) [Compound 41],0.62,0.048
H-H[Aib]EGSFTSELATILDEQAAK([AEEA-AEEA-γGlu-C20 diacid])DFIAWLIEHKITD-OH [Compound 45],0.36,1.4
H-H[Aib]EGSFTSELATILDK([AEEA-AEEA-γGlu-C20 diacid])KAARDFIAWLIEHKITD-OH (SMILES CC[C@H](C)[C@H](NC(=O)[C@H](Cc1ccccc1)NC(=O)[C@H](CC(=O)O)NC(=O)[C@H](CCCNC(=N)N)NC(=O)[C@H](C)NC(=O)[C@H](C)NC(=O)[C@H](CCCCN)NC(=O)[C@H](CCCCNC(=O)COCCOCCNC(=O)COCCOCCNC(=O)CC[C@H](NC(=O)CCCCCCCCCCCCCCCCCCC(=O)O)C(=O)O)NC(=O)[C@H](CC(=O)O)NC(=O)[C@H](CC(C)C)NC(=O)[C@@H](NC(=O)[C@@H](NC(=O)[C@H](C)NC(=O)[C@H](CC(C)C)NC(=O)[C@H](CCC(=O)O)NC(=O)[C@H](CO)NC(=O)[C@@H](NC(=O)[C@H](Cc1ccccc1)NC(=O)[C@H](CO)NC(=O)CNC(=O)[C@H](CCC(=O)O)NC(=O)C(C)(C)NC(=O)[C@@H](N)Cc1c[nH]cn1)[C@@H](C)O)[C@@H](C)O)[C@@H](C)CC)C(=O)N[C@@H](C)C(=O)N[C@@H](Cc1c[nH]c2ccccc12)C(=O)N[C@@H](CC(C)C)C(=O)N[C@H](C(=O)N[C@@H](CCC(=O)O)C(=O)N[C@@H](Cc1c[nH]cn1)C(=O)N[C@@H](CCCCN)C(=O)N[C@H](C(=O)N[C@H](C(=O)N[C@@H](CC(=O)O)C(=O)O)[C@@H](C)O)[C@@H](C)CC)[C@@H](C)CC) [Compound 43],0.15,0.096
H-H[Aib]EGSFTSELATILEGK([AEEA-AEEA-γGlu-C20 diacid])AARDFIAWLIEHKITD-OH (SMILES CC[C@H](C)[C@H](NC(=O)[C@H](Cc1ccccc1)NC(=O)[C@H](CC(=O)O)NC(=O)[C@H](CCCNC(=N)N)NC(=O)[C@H](C)NC(=O)[C@H](C)NC(=O)[C@H](CCCCNC(=O)COCCOCCNC(=O)COCCOCCNC(=O)CC[C@H](NC(=O)CCCCCCCCCCCCCCCCCCC(=O)O)C(=O)O)NC(=O)CNC(=O)[C@H](CCC(=O)O)NC(=O)[C@H](CC(C)C)NC(=O)[C@@H](NC(=O)[C@@H](NC(=O)[C@H](C)NC(=O)[C@H](CC(C)C)NC(=O)[C@H](CCC(=O)O)NC(=O)[C@H](CO)NC(=O)[C@@H](NC(=O)[C@H](Cc1ccccc1)NC(=O)[C@H](CO)NC(=O)CNC(=O)[C@H](CCC(=O)O)NC(=O)C(C)(C)NC(=O)[C@@H](N)Cc1c[nH]cn1)[C@@H](C)O)[C@@H](C)O)[C@@H](C)CC)C(=O)N[C@@H](C)C(=O)N[C@@H](Cc1c[nH]c2ccccc12)C(=O)N[C@@H](CC(C)C)C(=O)N[C@H](C(=O)N[C@@H](CCC(=O)O)C(=O)N[C@@H](Cc1c[nH]cn1)C(=O)N[C@@H](CCCCN)C(=O)N[C@H](C(=O)N[C@H](C(=O)N[C@@H](CC(=O)O)C(=O)O)[C@@H](C)O)[C@@H](C)CC)[C@@H](C)CC) [Compound 44],0.14,0.063
H-H[Aib]EGSFTSELATILDEQAARDFIAWLIEHKITD[dK][dK][dK][dK][dK][dK]([γGlu-C18 diacid])-NH2 (SMILES CC[C@H](C)[C@H](NC(=O)[C@H](Cc1ccccc1)NC(=O)[C@H](CC(=O)O)NC(=O)[C@H](CCCNC(=N)N)NC(=O)[C@H](C)NC(=O)[C@H](C)NC(=O)[C@H](CCC(N)=O)NC(=O)[C@H](CCC(=O)O)NC(=O)[C@H](CC(=O)O)NC(=O)[C@H](CC(C)C)NC(=O)[C@@H](NC(=O)[C@@H](NC(=O)[C@H](C)NC(=O)[C@H](CC(C)C)NC(=O)[C@H](CCC(=O)O)NC(=O)[C@H](CO)NC(=O)[C@@H](NC(=O)[C@H](Cc1ccccc1)NC(=O)[C@H](CO)NC(=O)CNC(=O)[C@H](CCC(=O)O)NC(=O)C(C)(C)NC(=O)[C@@H](N)Cc1c[nH]cn1)[C@@H](C)O)[C@@H](C)O)[C@@H](C)CC)C(=O)N[C@@H](C)C(=O)N[C@@H](Cc1c[nH]c2ccccc12)C(=O)N[C@@H](CC(C)C)C(=O)N[C@H](C(=O)N[C@@H](CCC(=O)O)C(=O)N[C@@H](Cc1c[nH]cn1)C(=O)N[C@@H](CCCCN)C(=O)N[C@H](C(=O)N[C@H](C(=O)N[C@@H](CC(=O)O)C(=O)N[C@H](CCCCN)C(=O)N[C@H](CCCCN)C(=O)N[C@H](CCCCN)C(=O)N[C@H](CCCCN)C(=O)N[C@H](CCCCN)C(=O)N[C@H](CCCCNC(=O)CC[C@H](NC(=O)CCCCCCCCCCCCCCCCC(=O)O)C(=O)O)C(N)=O)[C@@H](C)O)[C@@H](C)CC)[C@@H](C)CC) [Compound 40],0.5,0.074
